Our source for the Kd values is the Immune Epitope Database (IEDB).

One test deals with HLA-A*23:01. The experiment in a line: IEDB peptide-MHC binding, purified MHC/competitive/radioactivity; filed as Kd, often an IC50 or EC50 that approximates it; ≥ and ≤ were set here for values at or beyond the usual limits of such assays.
In the next test the target is HLA-A*30:02. Described as above.
The next test has as its target HLA-A*26:01. The description is as above.
In a further test the target is HLA-A*24:02. Described as above.
The target in a further test is HLA-A*01:01. Described as above.
A further test concerns the target HLA-A*29:02. The description is as above.
Another test has as its target HLA-A*02:01. Put plainly: IEDB peptide-MHC binding, purified MHC/competitive/fluorescence; filed as Kd, often an IC50 or EC50 that approximates it; ≥ and ≤ were set here for values at or beyond the usual limits of such assays.
The target of a further test is HLA-B*08:01. Put plainly: IEDB peptide-MHC binding, purified MHC/competitive/radioactivity; filed as Kd, often an IC50 or EC50 that approximates it; ≥ and ≤ were set here for values at or beyond the usual limits of such assays.
A further test addresses HLA-A*02:03. The test is described as above. The following applies: source organism: Dengue virus 4 Philippines/H241/1956.
The next test deals with HLA-B*53:01. The test is described as above. The note with it: source organism: Dengue virus 3 Martinique/1243/1999.
[1] abbreviates: source organism: Vaccinia virus Copenhagen.
Where [2] appears, read: source organism: SARS coronavirus Tor2.
Setting [3] is: source organism: Mammarenavirus guanaritoense.
[4] abbreviates: source organism: Mammarenavirus tacaribeense.
Setting [5] is: source organism: Dengue virus 3 Martinique/1243/1999.
Setting [6] is: source organism: Dengue virus 2 Jamaica/1409/1983.
Setting [7] is: source organism: Mammarenavirus machupoense.

As usually defined, the Kd is the equilibrium constant for the complex coming apart.

On to FGDSEEPVTY, for which the Kd in the test with HLA-A*23:01 (setting [1]) is 1.49 µM; in the test with HLA-A*30:02 (setting [1]) it was 13.1 µM; with HLA-A*26:01 (setting [1]), not below 69.7 µM; with HLA-A*24:02 (setting [1]) it was not below 70.3 µM; with HLA-A*01:01 (setting [1]), 0.834 µM; in the test with HLA-A*29:02 (setting [1]), 13 µM.

Sequence RQMATTTNPLI gave a Kd with HLA-A*02:01 (source organism: Influenza A virus (A/parakeet/Chiba/1/97(H9N2))) of 13 nM.

WLSYKVASA: the Kd came out at 7.42 nM with HLA-B*08:01 (source organism: Dengue virus 4 Philippines/H241/1956) and 12.3 nM in the test with HLA-A*02:03.

On to VYRGTTTYKL, for which the Kd with HLA-A*23:01 (setting [2]) worked out at 0.101 µM; with HLA-A*30:02 (setting [2]) it was 6.88 µM; with HLA-A*26:01 (setting [2]), 1 µM; with HLA-A*24:02 (setting [2]) it was 0.136 µM; with HLA-A*01:01 (setting [2]) it was 3.91 µM; with HLA-A*29:02 (setting [2]) it was 0.216 µM.

In the case of KLGFEEIKGL, the Kd in the test with HLA-A*02:01 (setting [1]) is 30.6 nM.

On to MFLARAIVF, for which the Kd with HLA-A*23:01 (setting [2]) is 19.4 µM; with HLA-A*30:02 (setting [2]), 16.6 µM; in the test with HLA-A*26:01 (setting [2]) it was not below 34.1 µM; in the test with HLA-A*24:02 (setting [2]) it was not below 77.6 µM; with HLA-A*01:01 (setting [2]), not below 78.1 µM; with HLA-A*29:02 (setting [2]), 8.47 µM.

Consider TEETFKLSY, for which the Kd is not below 62.8 µM with HLA-A*23:01 (setting [2]); 3.6 µM in the test with HLA-A*30:02 (setting [2]); 15.3 µM with HLA-A*26:01 (setting [2]); not below 30.2 µM with HLA-A*24:02 (setting [2]); 7.91 µM with HLA-A*01:01 (setting [2]); 0.141 µM with HLA-A*29:02 (setting [2]).

For VIEGPTTCGY, the Kd with HLA-A*23:01 (setting [2]) was not below 38.1 µM; with HLA-A*30:02 (setting [2]) it was 0.0262 µM; in the test with HLA-A*26:01 (setting [2]) it was 0.907 µM; in the test with HLA-A*24:02 (setting [2]), 17 µM; in the test with HLA-A*01:01 (setting [2]) it was 0.109 µM; in the test with HLA-A*29:02 (setting [2]), 0.152 µM.

On to SASKSASVY, for which the Kd with HLA-A*23:01 (setting [2]) is not below 77.8 µM; with HLA-A*30:02 (setting [2]), 0.385 µM; with HLA-A*26:01 (setting [2]), not below 20.8 µM; in the test with HLA-A*24:02 (setting [2]), not below 77.6 µM; in the test with HLA-A*01:01 (setting [2]), not below 24.7 µM; with HLA-A*29:02 (setting [2]), 4.99 µM.

On to SMKSVQNNTV, for which the Kd is not below 70 µM in the test with HLA-A*23:01 (setting [3]); 2.98 µM in the test with HLA-A*30:02 (setting [3]); not below 69.7 µM with HLA-A*26:01 (setting [3]); not below 70.3 µM in the test with HLA-A*24:02 (setting [3]); not below 70.4 µM with HLA-A*01:01 (setting [3]); not below 53.1 µM with HLA-A*29:02 (setting [3]).

With VDSSQGSEY, the Kd with HLA-A*23:01 (setting [2]) was not below 77.8 µM; in the test with HLA-A*30:02 (setting [2]), 1.98 µM; with HLA-A*26:01 (setting [2]) it was not below 24.4 µM; with HLA-A*24:02 (setting [2]), not below 77.6 µM; with HLA-A*01:01 (setting [2]), 0.892 µM; in the test with HLA-A*29:02 (setting [2]), 1.05 µM.

In the case of CWFADKNLI, the Kd in the test with HLA-A*23:01 (setting [4]) came to 0.275 µM; with HLA-A*24:02 (setting [4]) it was 0.51 µM; in the test with HLA-A*29:02 (setting [4]), 3.15 µM.

For the sequence EYQKTKLNDW, the Kd with HLA-A*23:01 (setting [5]) was found to be 10.8 µM; with HLA-A*24:02 (setting [5]) it was 10.3 µM.

With IYRILQRGLL, the Kd with HLA-B*08:01 (source organism: Dengue virus 1 Brazil/97-11/1997) came to 2570 nM.

For the sequence HVQRIETWIL, the Kd with HLA-B*08:01 (setting [6]) stood at 1730 nM.

Turning to YSIPATLLVW, the Kd with HLA-B*53:01 turned out to be 59.7 nM; with HLA-A*23:01 (setting [5]), 0.0704 µM.

Consider EYISDAFSL, for which the Kd in the test with HLA-A*23:01 (setting [2]) is not below 64.6 µM; with HLA-A*30:02 (setting [2]), not below 81.1 µM; with HLA-A*26:01 (setting [2]), not below 77.9 µM; in the test with HLA-A*24:02 (setting [2]), not below 91.8 µM; with HLA-A*01:01 (setting [2]), not below 37.6 µM; with HLA-A*29:02 (setting [2]), not below 88.2 µM.

In the case of SRSTSLSVSL, the Kd in the test with HLA-B*08:01 (setting [6]) was 558 nM.

For GWHDWQQVPF, the Kd with HLA-A*23:01 (setting [5]) is 0.414 µM; with HLA-A*24:02 (setting [5]) it was 0.118 µM.

As for HCALLDCIMY, the Kd with HLA-A*23:01 (setting [7]) is not below 70 µM; with HLA-A*30:02 (setting [7]), 1.42 µM; with HLA-A*26:01 (setting [7]) it was not below 69.7 µM; in the test with HLA-A*24:02 (setting [7]), not below 70.3 µM; with HLA-A*01:01 (setting [7]) it was 0.232 µM; with HLA-A*29:02 (setting [7]), 2.18 µM.

In the case of CYSKSLRDLV, the Kd with HLA-A*23:01 (setting [3]) is 3.07 µM; with HLA-A*30:02 (setting [3]), not below 69.7 µM; with HLA-A*26:01 (setting [3]) it was not below 69.7 µM; with HLA-A*24:02 (setting [3]), 0.529 µM; with HLA-A*01:01 (setting [3]), 12.6 µM; with HLA-A*29:02 (setting [3]), not below 43 µM.
